Series [1] is described as follows: Native gel after storage in freezer (-80 degrees Celsius) and thawing. The series is classed as physicochemical. The note with it: ferritin cages with doxorubicin, mutants of b203.
Series [2] deals with MDA-MB 231, Skov3 and 4T1. Briefly: Tumour cell viability after 72 h co-culture with macrophages carrying doxorubicin packed ferritin. The series is classed as cell-based. Particulars: ferritin cages filled with doxorubicin 1 mg/ml. On the procedure: FIG. 7: Graphs of tumour cell viability after 72 h co-culture with macrophages. The concentration of ferritin cages filled with doxorubicin was the same for each variant of ferritin and was equal to 1 mg/ml.
The doxorubicin packed proteins were inserted into macrophages and then co-cultured with breast and ovarian cancer cell lines: MDA-MB 231, Skov3 and 4T1. The number of viable cells after co-culture was the lowest for the Q11E-Q15E mutant (FIG. 7).

Series [3] is described as follows: Native PAGE gel after doxorubicin encapsulation and purification. In kind it is physicochemical. Particulars: after doxorubicin encapsulation; mutants carry added K54E, K72E, K87Q, K144E, C91S, C103S. The source says: Native PAGE gel has been performed in order to check the size of the protein after encapsulation and purification.

B1: Q11E-Q15E mutant: Examples 3-8 ferritin variant based on Q11E-Q15E with added K54E, K72E, K87Q, K144E, C91S and C103S (protein, UniProt P02794 1-183, looked up, variant Q11E Q15E K54E K72E K87Q K144E C91S C103S)
Ferritin heavy chain: MTTASTSQVRENYHEDSEAAINRQINLELYASYVYLSMSYYFDRDDVALKNFAEYFLHQSHEEREHAEKLMELQNQRGGRIFLQDIQKPDSDDWESGLNAMESALHLEKNVNQSLLELHKLATDKNDPHLCDFIETHYLNEQVEAIKELGDHVTNLRKMGAPESGLAEYLFDKHTLGDSDNES
modifications: doxorubicin-loaded form also
Take B1: the “aggregation of cages after storage” value in series [1] is given as “still present as 24-mers (homogeneous cages) after storage”. The “number of viable cells after co-culture” value in series [2] is reported as “lowest”. The “forms on native gel (aggregates versus 24-mers)” value in series [3] is recorded as “present as 24-mers (homogeneous cages)”.

The values are drawn from patent publication US20240158472A1, “FERRITIN VARIANTS WITH INCREASED STABILITY AND COMPLEXATION ABILITY” (Cellis AG, priority 2021, published 2024).
